B1: scrambled 39 bp DNA (dsDNA)
DNA 1: GTACGGAGTATCCAGCTCCGTAGCATGCAAATCCTCTGG
DNA 2: CCAGAGGATTTGCATGCTACGGAGCTGGATACTCCGTAC
B2: nifB promoter 50 bp (-47 to +3) (dsDNA)
DNA 1: GGAGAAGTGAATTGACTGTATTTGTCCCTGTCTCTAAGATGTAATTATAT
DNA 2: ATATAATTACATCTTAGAGACAGGGACAAATACAGTCAATTCACTTCTCC

Assays:
[1] = target: T1, E. coli sigma70-RNAP holoenzyme (Escherichia coli, UniProt P0A7Z4;P0A8V2;P0A8T7;P0A800;P00579 1-329;1-1342;1-1407;2-91;1-613); assay: EMSA; EMSA: Roche DIG Gel Shift Kit, 0.03 pmol labeled DNA, buffer not stated; footprinting: binding 30 min at 25 C, DNase I 40 s at 37 C; details: protein: commercial; chain copies: 2;1;1;1;1; blunt
[2] = target: T1, E. coli sigma70-RNAP holoenzyme; assay: EMSA; reported to bind more tightly than Paenibacillus sigma70; EMSA: Roche DIG Gel Shift Kit, 0.03 pmol labeled DNA, buffer not stated; footprinting: binding 30 min at 25 C, DNase I 40 s at 37 C; details: protein: commercial; chain copies: 2;1;1;1;1; label: digoxigenin (DIG Gel Shift Kit); blunt

| Binder | binding result [1] | binding result [2] |
| --- | --- | --- |
| B1 | no binding | – |
| B2 | – | binds |
